From PMC5531472, “A single nucleotide polymorphism causes enhanced radical oxygen species production by human aldehyde oxidase” (PLoS ONE, 2017)
Substitutions are numbered along the chain they refer to. Names may count otherwise.

B1: human aldehyde oxidase 1 variant G46E (enzyme)
chain: MDRASELLFYVNGRKVIEKNVDPETMLLPYLRKKLRLTGTKYGCGEGGCGACTVMISRYNPITKRIRHHPANACLIPICSLYGAAVTTVEGIGSTHTRIHPVQERIAKCHGTQCGFCTPGMVMSIYTLLRNHPEPTLDQLTDALGGNLCRCTGYRPIIDACKTFCKTSGCCQSKENGVCCLDQGINGLPEFEEGSKTSPKLFAEEEFLPLDPTQELIFPPELMIMAEKQSQRTRVFGSERMMWFSPVTLKELLEFKFKYPQAPVIMGNTSVGPEVKFKGVFHPVIISPDRIEELSVVNHAYNGLTLGAGLSLAQVKDILADVVQKLPEEKTQMYHALLKHLGTLAGSQIRNMASLGGHIISRHPDSDLNPILAVGNCTLNLLSKEGKRQIPLNEQFLSKCPNADLKPQEILVSVNIPYSRKWEFVSAFRQAQRQENALAIVNSGMRVFFGEGDGIIRELCISYGGVGPATICAKNSCQKLIGRHWNEQMLDIACRLILNEVSLLGSAPGGKVEFKRTLIISFLFKFYLEVSQILKKMDPVHYPSLADKYESALEDLHSKHHCSTLKYQNIGPKQHPEDPIGHPIMHLSGVKHATGEAIYCDDMPLVDQELFLTFVTSSRAHAKIVSIDLSEALSMPGVVDIMTAEHLSDVNSFCFFTEAEKFLATDKVFCVGQLVCAVLADSEVQAKRAAKRVKIVYQDLEPLILTIEESIQHNSSFKPERKLEYGNVDEAFKVVDQILEGEIHMGGQEHFYMETQSMLVVPKGEDQEMDVYVSTQFPKYIQDIVASTLKLPANKVMCHVRRVGGAFGGKVLKTGIIAAVTAFAANKHGRAVRCVLERGEDMLITGGRHPYLGKYKAGFMNDGRILALDMEHYSNAGASLDESLFVIEMGLLKMDNAYKFPNLRCRGWACRTNLPSNTAFRGFGFPQAALITESCITEVAAKCGLSPEKVRIINMYKEIDQTPYKQEINAKNLIQCWRECMAMSSYSLRKVAVEKFNAENYWKKKGLAMVPLKFPVGLGSRAAGQAAALVHIYLDGSVLVTHGGIEMGQGVHTKMIQVVSRELRMPMSNVHLRGTSTETVPNANISGGSVVADLNGLAVKDACQTLLKRLEPIISKNPKGTWKDWAQTAFDESINLSAVGYFRGYESDMNWEKGEGQPFEYFVYGAACSEVEIDCLTGDHKNIRTDIVMDVGCSINPAIDIGQIEGAFIQGMGLYTIEELNYSPQGILHTRGPDQYKIPAICDMPTELHIALLPPSQNSNTLYSSKGLGESGVFLGCSVFFAIHDAVSAARQERGLHGPLTLNSPLTPEKIRMACEDKFTKMIPRDEPGSYVPWNVPI
notes: human aldehyde oxidase 1 (hAOX1), protein of 1338 amino acids, SNP-based variant G46E; construct pAF4 derived from pTHcohAOX1; also called hAOX1 G46E; pAF4; source: E. coli TP1000 (ΔmobAB), purified (nickel-nitrilotriacetic acid resin, size exclusion chromatography)
B2: human aldehyde oxidase 1 variant L438V (enzyme)
chain: B1 chain with E46G, L438V
notes: human aldehyde oxidase 1 (hAOX1), protein of 1338 amino acids, SNP-based variant L438V; construct pAF10 derived from pTHcohAOX1; also called hAOX1 L438V; hAOX1-L438V; source: E. coli TP1000 (ΔmobAB), purified (nickel-nitrilotriacetic acid resin, size exclusion chromatography)
B3: human aldehyde oxidase 1 variant A437V (enzyme)
chain: B1 chain with E46G, A437V
notes: human aldehyde oxidase 1 (hAOX1), protein of 1338 amino acids, SNP-based variant A437V; construct pAF9 derived from pTHcohAOX1; also called hAOX1 A437V; pAF9; source: E. coli TP1000 (ΔmobAB), purified (nickel-nitrilotriacetic acid resin, size exclusion chromatography)
B4: human aldehyde oxidase 1 variant G50D (enzyme)
chain: B1 chain with E46G, G50D
notes: human aldehyde oxidase 1 (hAOX1), protein of 1338 amino acids, SNP-based variant G50D; construct pAF5 derived from pTHcohAOX1; purified with a 10-fold lower yield than the other variants; also called hAOX1 G50D; hAOX1-G50D; source: E. coli TP1000 (ΔmobAB), purified (nickel-nitrilotriacetic acid resin, size exclusion chromatography)
B5: human aldehyde oxidase 1 variant G346R (enzyme)
chain: B1 chain with E46G, G346R
notes: human aldehyde oxidase 1 (hAOX1), protein of 1338 amino acids, SNP-based variant G346R; construct pAF6 derived from pTHcohAOX1; also called hAOX1 G346R; pAF6; source: E. coli TP1000 (ΔmobAB), purified (nickel-nitrilotriacetic acid resin, size exclusion chromatography)
B6: human aldehyde oxidase 1 variant H363Q (enzyme)
chain: B1 chain with E46G, H363Q
notes: human aldehyde oxidase 1 (hAOX1), protein of 1338 amino acids, SNP-based variant H363Q; construct pAF7 derived from pTHcohAOX1; also called hAOX1 H363Q; pAF7; source: E. coli TP1000 (ΔmobAB), purified (nickel-nitrilotriacetic acid resin, size exclusion chromatography)
B7: human aldehyde oxidase 1 variant R1231H (enzyme)
chain: B1 chain with E46G, R1231H
notes: human aldehyde oxidase 1 (hAOX1), protein of 1338 amino acids, SNP-based variant R1231H; construct pAF12 derived from pTHcohAOX1; also called hAOX1 R1231H; pAF12; source: E. coli TP1000 (ΔmobAB), purified (nickel-nitrilotriacetic acid resin, size exclusion chromatography)
B8: human aldehyde oxidase 1 variant K1237N (enzyme)
chain: B1 chain with E46G, K1237N
notes: human aldehyde oxidase 1 (hAOX1), protein of 1338 amino acids, SNP-based variant K1237N; construct pAF13 derived from pTHcohAOX1; also called hAOX1 K1237N; pAF13; source: E. coli TP1000 (ΔmobAB), purified (nickel-nitrilotriacetic acid resin, size exclusion chromatography)
B9: human aldehyde oxidase 1 variant A439E (enzyme)
chain: B1 chain with E46G, A439E
notes: human aldehyde oxidase 1 (hAOX1), protein of 1338 amino acids, SNP-based variant A439E; construct pAF11 derived from pTHcohAOX1; also called hAOX1 A439E; pAF11; source: E. coli TP1000 (ΔmobAB), purified (nickel-nitrilotriacetic acid resin, size exclusion chromatography)
B10: human aldehyde oxidase 1 variant R433P (enzyme)
chain: B1 chain with E46G, R433P
notes: human aldehyde oxidase 1 (hAOX1), protein of 1338 amino acids, SNP-based variant R433P; construct pAF8 derived from pTHcohAOX1; also called hAOX1 R433P; pAF8; source: E. coli TP1000 (ΔmobAB), purified (nickel-nitrilotriacetic acid resin, size exclusion chromatography)

Molecular target: the molecule itself
Assay: SEC; size exclusion chromatography on a Superdex 200 10/300 GL column after nickel-NTA purification; data not shown

Row | Protein | stoichiometry N
1 | B1 | 2
2 | B2 | 2
3 | B3 | 2
4 | B4 | 2
5 | B5 | 2
6 | B6 | 2
7 | B7 | 2
8 | B8 | 2
9 | B9 | 2
10 | B10 | 2
